T1: P1243_AMBAM (Amblyomma americanum, UniProt A0A0C9S461 26-123)
T1 construct: Tick evasin; also called Evasin
T1 sequence: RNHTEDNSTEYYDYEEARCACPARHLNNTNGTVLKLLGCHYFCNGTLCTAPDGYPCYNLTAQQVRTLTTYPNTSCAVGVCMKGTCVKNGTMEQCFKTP

T2: CCL25_HUMAN (human, UniProt O15444 24-150)
T2 construct: Biotinylated (detected with streptavidin-Alexa647) in yeast display; AlexaFluor 647 labelled (Almac) in thermophoresis
T2 sequence: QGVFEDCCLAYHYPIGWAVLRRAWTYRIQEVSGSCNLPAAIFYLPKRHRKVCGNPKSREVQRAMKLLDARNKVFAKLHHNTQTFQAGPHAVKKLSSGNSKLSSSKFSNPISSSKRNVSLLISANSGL

T3: P1182_AMBMA (Amblyomma maculatum, UniProt G3MJ83 27-115)
T3 construct: Tick evasin; also called Evasin
T3 sequence: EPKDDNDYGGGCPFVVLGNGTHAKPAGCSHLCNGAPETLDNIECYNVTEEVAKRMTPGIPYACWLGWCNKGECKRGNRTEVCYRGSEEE

T4: P672_RHIPU (Rhipicephalus pulchellus, UniProt L7MC74 22-125)
T4 construct: Tick evasin; also called Evasin
T4 sequence: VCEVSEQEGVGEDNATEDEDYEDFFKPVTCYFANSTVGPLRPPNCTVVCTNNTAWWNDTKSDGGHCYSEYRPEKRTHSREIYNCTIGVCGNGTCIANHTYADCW

T5: P974_AMBCA (Amblyomma cajennense, UniProt A0A023FDY8 22-118)
T5 construct: Tick evasin; also called Evasin
T5 sequence: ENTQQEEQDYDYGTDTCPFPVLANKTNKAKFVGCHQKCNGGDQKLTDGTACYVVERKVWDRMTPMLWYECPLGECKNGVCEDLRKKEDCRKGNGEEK

T6: P1180_AMBTR (Amblyomma triste, UniProt A0A023G6B6 26-116)
T6 construct: Tick evasin; also called Evasin
T6 sequence: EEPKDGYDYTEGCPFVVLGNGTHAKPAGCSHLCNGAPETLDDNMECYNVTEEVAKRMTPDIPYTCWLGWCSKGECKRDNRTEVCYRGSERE

T7: P991_AMBCA (Amblyomma cajennense, UniProt A0A023FFD0 29-136)
T7 construct: Tick evasin; also called Evasin
T7 sequence: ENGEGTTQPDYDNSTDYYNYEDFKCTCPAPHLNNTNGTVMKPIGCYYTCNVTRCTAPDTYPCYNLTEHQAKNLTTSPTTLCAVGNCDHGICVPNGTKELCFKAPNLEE

T8: P1181_AMBMA (Amblyomma maculatum, UniProt G3MIX6 26-115)
T8 construct: Tick evasin; also called Evasin
T8 sequence: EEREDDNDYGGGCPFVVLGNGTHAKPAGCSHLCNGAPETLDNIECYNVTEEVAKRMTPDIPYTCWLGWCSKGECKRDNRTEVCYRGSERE

T9: P983_AMBCA (Amblyomma cajennense, UniProt A0A023FFB5 22-119)
T9 construct: Tick evasin; also called Evasin
T9 sequence: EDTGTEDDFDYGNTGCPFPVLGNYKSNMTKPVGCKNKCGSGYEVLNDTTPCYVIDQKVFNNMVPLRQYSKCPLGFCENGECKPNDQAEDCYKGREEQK

T10: P985_AMBPA (Amblyomma parvum, UniProt A0A023FT45 25-132)
T10 construct: Tick evasin; also called Evasin
T10 sequence: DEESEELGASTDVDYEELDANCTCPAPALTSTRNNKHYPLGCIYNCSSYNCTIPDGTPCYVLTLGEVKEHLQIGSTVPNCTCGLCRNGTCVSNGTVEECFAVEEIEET

T11: P467_RHIPU (Rhipicephalus pulchellus, UniProt L7M8Z8 22-127)
T11 construct: Tick evasin; also called Evasin
T11 sequence: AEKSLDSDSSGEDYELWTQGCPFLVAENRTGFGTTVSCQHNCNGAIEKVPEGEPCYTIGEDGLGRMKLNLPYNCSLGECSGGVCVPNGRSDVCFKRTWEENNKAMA

T12: CCL19_HUMAN (human, UniProt Q99731 22-98)
T12 construct: Biotinylated (detected with streptavidin-Alexa647) in yeast display; AlexaFluor 647 labelled (Almac) in thermophoresis
T12 sequence: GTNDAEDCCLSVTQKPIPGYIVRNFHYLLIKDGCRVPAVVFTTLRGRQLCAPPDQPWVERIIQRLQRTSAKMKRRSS

T13: CXCL10_HUMAN (human, UniProt P02778 22-98)
T13 construct: Biotinylated (detected with streptavidin-Alexa647) in yeast display; AlexaFluor 647 labelled (Almac) in thermophoresis
T13 sequence: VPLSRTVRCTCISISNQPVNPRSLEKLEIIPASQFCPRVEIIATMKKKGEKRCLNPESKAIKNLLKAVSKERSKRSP

T14: CCL3_HUMAN (human, UniProt P10147 24-92)
T14 construct: Biotinylated (detected with streptavidin-Alexa647) in yeast display; AlexaFluor 647 labelled (Almac) in thermophoresis
T14 sequence: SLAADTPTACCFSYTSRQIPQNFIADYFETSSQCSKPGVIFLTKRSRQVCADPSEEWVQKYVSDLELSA

T15: CXCL8_HUMAN (human, UniProt P10145 28-99)
T15 construct: Biotinylated (detected with streptavidin-Alexa647) in yeast display; AlexaFluor 647 labelled (Almac) in thermophoresis
T15 sequence: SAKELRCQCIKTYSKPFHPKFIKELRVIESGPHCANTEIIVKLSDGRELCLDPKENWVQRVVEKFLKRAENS

T16: CCL1_HUMAN (human, UniProt P22362 24-96)
T16 construct: Biotinylated (detected with streptavidin-Alexa647) in yeast display; AlexaFluor 647 labelled (Almac) in thermophoresis
T16 sequence: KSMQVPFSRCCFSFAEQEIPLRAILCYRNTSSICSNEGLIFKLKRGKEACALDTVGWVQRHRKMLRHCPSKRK

T17: CCL18_HUMAN (human, UniProt P55774 21-89)
T17 construct: Biotinylated (detected with streptavidin-Alexa647) in yeast display; AlexaFluor 647 labelled (Almac) in thermophoresis
T17 sequence: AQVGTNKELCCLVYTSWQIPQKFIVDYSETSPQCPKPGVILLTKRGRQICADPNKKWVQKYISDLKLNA

B1: CCL15_HUMAN (ligand)
chain: QFTNDAETELMMSKLPLENPVVLNSFHFAADCCTSYISQSIPCSLMKSYFETSSECSKPGVIFLTKKGRQVCAKPSGPGVQDCMKKLKPYSI
notes: Biotinylated (detected with streptavidin-Alexa647) in yeast display; AlexaFluor 647 labelled (Almac) in thermophoresis
B2: P546_AMBCA (other)
chain: T5 sequence with Q8E, E69S, D88E
notes: Tick evasin; also called Evasin
B3: CCL8_HUMAN (ligand)
chain: QPDSVSIPITCCFNVINRKIPIQRLESYTRITNIQCPKEAVIFKTKRGKEVCADPKERWVRDSMKHLDQIFQNLKP
notes: as for B1
B4: CCL4 (ligand)
chain: APMGSDPPTACCFSYTARKLPRNFVVDYYETSSLCSQPAVVFQTKRSKQVCADPSESWVQEYVYDLELN
notes: Biotinylated (detected with streptavidin-Alexa647) in yeast display; also called human CCL4
B5: CCL5_HUMAN (ligand)
chain: SPYSSDTTPCCFAYIARPLPRAHIKEYFYTSGKCSNPAVVFVTRKNRQVCANPEKKWVREYINSLEMS
notes: as for B1
B6: P1224_IXORI (other)
chain: SDLCKMEAESSPFKLPQSSLLDAPDEEGCKYQLLFVEAEGPLVVNCTKDCPNGKIRTVVEGELCIAMVKTSSSGEATGLVGSCKRGSCVKKDDPCRTFTLSEEGDDDEEDEEEEEDEEEDEEEDEEEEEEDEEEED
notes: as for B2
B7: P1215_AMBPA (other)
chain: KTDTKNAAGELPPKVVIPGCEDPATTKAPLPDEPPYYGITIDKDGCQRKVLGSSQRQQRKVQNGRKLDGKKRGRRPVFVDLELTVDCKRKCNGTYSQLPDGENCLVSDGYPYGRWGTIKGGCYQGNCSSGQCHRGEKKVNCYLPKNITNDVPKSLNLAE
notes: as for B2

The target in assay [1] is T1, P1243_AMBAM. Briefly: microscale thermophoresis, AlexaFluor 647 labelled chemokine.
Assay [2] concerns the target T2, CCL25_HUMAN. The description is as above.
For assay [3], the target named is B2. The assay is described as above.
In assay [4] the target is T3, P1182_AMBMA. Briefly: yeast surface display library FACS screen, labelled chemokine (col C: isolated in).
For assay [5], the target named is T4, P672_RHIPU. The assay is described as above.
In assay [6] the target is T5, P974_AMBCA. The description is as above.
In assay [7] the target is T1, P1243_AMBAM. Described as above.
Assay [8] addresses T6, P1180_AMBTR. Described as above.
Assay [9] has as its target T7, P991_AMBCA. Described as above.
Assay [10] deals with T8, P1181_AMBMA. Described as above.
Assay [11] deals with T9, P983_AMBCA. Briefly: yeast surface display FACS re-test, >3 fold MFI over control (col D).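 Also: yeast displaying putative tick Evasins stained with biotinylated human chemokine plus streptavidin-Alexa647, flow cytometry, positive when MFI exceeds 3-fold the empty-vector or no-chemokine background.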
The target of assay [12] is T10, P985_AMBPA. The assay is described as above.
The target of assay [13] is B2. The assay is described as above.
Assay [14] addresses T10, P985_AMBPA. In words: microscale thermophoresis, AlexaFluor 647 labelled chemokine.
In assay [15] the target is T11, P467_RHIPU. Described as above.
Assay [16] addresses T12, CCL19_HUMAN. In words: yeast surface display library FACS screen, labelled chemokine (col C: isolated in).
Assay [17] concerns the target T13, CXCL10_HUMAN. Described as above.
For assay [18], the target named is T14, CCL3_HUMAN. Described as above.
For assay [19], the target named is B5. Briefly: microscale thermophoresis, AlexaFluor 647 labelled chemokine.
The target of assay [20] is T15, CXCL8_HUMAN. Briefly: yeast surface display library FACS screen, labelled chemokine (col C: isolated in).
Assay [21] deals with T18, CCL11_HUMAN (human, UniProt P51671 24-97).
T18 construct: Biotinylated (detected with streptavidin-Alexa647) in yeast display; AlexaFluor 647 labelled (Almac) in thermophoresis
T18 sequence (P51671 24-97 limits assumed): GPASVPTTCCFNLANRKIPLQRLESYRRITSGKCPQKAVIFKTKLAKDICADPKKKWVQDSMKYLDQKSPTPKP
The assay is described as above.

Assay [22] deals with T16, CCL1_HUMAN. The description is as above.
For assay [23], the target named is T17, CCL18_HUMAN. In words: yeast surface display FACS re-test, >3 fold MFI over control (col D).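 Also: yeast displaying putative tick Evasins stained with biotinylated human chemokine plus streptavidin-Alexa647, flow cytometry, positive when MFI exceeds 3-fold the empty-vector or no-chemokine background.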

Residue numbers refer to the chain shown, from its start.

In assay [1], B1 showed a Kd of 4 nM.
In turn, B2 displayed a Kd in assay [2] of 1220 nM.
As to B3, the Kd in [3] stood at 80 nM. The binding result in assay [4] and in assay [5] was “binds” in each case.
As for B4, the binding result in [4], in assay [6], in assay [7], in assay [8], in [9] and in [10] was “binds” in each case. Further, the binding result in assay [11], in [12] and in [13] was “binds” each time.
For the molecule B5, the Kd in [14] and in assay [15] was 48 nM throughout.
On to B6, for which the binding result in assay [16], in assay [17] and in [18] was “binds” throughout.
For the molecule B7, the Kd in assay [19] turned out to be 73 nM. Besides, the binding result in assay [20], in assay [21], in assay [22] and in assay [23] was “binds” each time.

The values above are taken from patent US20220175942A1 (OXFORD UNIVERSITY INNOVATION, published 2022).
